Data published in patent US20060121462A1 (published 2006).

Legend:
human C5L2 [1] = biological target: T1, human C5L2 (human, UniProt Q9P296 1-337); assay: competition with 50 pM 125I-C3a on C5L2-transfected RBL cells, 4 C
T1 construct: Expressed on stably transfected RBL-2H3 cells, on transiently or stably transfected HEK 293 cells, and endogenously on HSF cells; also called C5L2 receptor
Description: (§1) Competition binding assays were performed using 50 pM ¹²⁵I-C5a or ¹²⁵I-C3a (NEN) on adherent C5aR-transfected or C5L2-transfected RBL cells in 96-well microtiter plates (55 000/well) at 4° C. as described previously (22). Competition curves were generated by pre-incubating adherent cells with increasing concentrations of unlabelled complement fragments. The IC₅₀, standard error values and linear regression analyses were obtained by using GraphPad Prism 2.0.

human C5L2 [2] = biological target: T1, human C5L2; assay: radioligand competition on transfected RBL cells (Table I)
human C5L2 [3] = biological target: T1, human C5L2; assay: cell-based or functional assay
human C5L2 [4] = biological target: T1, human C5L2; assay: competition with 50 pM 125I-C5a on C5L2-transfected RBL cells, 4 C
Description: as §1

[5] = biological target: T2, human C3a receptor (C3aR) (human, UniProt Q16581 1-482); assay: radioligand competition on C3aR-transfected RBL cells (radioligand not given)
T2 construct: whole, on cells
T2 sequence (looked up): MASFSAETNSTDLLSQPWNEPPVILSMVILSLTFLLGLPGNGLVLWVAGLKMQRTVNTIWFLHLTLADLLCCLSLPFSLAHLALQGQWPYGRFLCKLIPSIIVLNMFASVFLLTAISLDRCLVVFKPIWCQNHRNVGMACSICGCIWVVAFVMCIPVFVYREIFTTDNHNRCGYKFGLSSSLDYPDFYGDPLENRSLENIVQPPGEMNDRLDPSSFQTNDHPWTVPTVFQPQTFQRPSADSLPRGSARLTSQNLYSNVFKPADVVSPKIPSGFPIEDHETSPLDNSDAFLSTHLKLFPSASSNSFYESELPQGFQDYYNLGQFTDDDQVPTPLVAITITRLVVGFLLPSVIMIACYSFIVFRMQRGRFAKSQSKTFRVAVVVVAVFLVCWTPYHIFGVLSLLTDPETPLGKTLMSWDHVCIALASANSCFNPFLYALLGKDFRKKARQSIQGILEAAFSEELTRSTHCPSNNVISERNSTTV

[6] = biological target: T3, human CD88 (C5a receptor) (human, UniProt P21730 1-350); assay: competition with 50 pM 125I-C5a on CD88-transfected RBL cells, 4 C
T3 construct: whole, on cells
T3 sequence (looked up): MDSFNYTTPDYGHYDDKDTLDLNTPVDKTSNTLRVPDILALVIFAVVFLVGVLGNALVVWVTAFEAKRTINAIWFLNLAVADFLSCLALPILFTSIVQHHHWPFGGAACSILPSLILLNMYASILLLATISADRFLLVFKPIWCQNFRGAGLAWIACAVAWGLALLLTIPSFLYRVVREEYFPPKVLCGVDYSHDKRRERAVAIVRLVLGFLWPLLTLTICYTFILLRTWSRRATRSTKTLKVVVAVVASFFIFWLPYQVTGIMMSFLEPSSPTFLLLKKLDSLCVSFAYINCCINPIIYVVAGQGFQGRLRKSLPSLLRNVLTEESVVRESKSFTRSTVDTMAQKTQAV
Description: as §1

[7] = biological target: T2, human C3a receptor (C3aR); assay: flow cytometry, FLUOS-ASP on HEK 293 cells transiently transfected with C3aR
Description: (§2) HEK 293 cells were transfected with C3aR (A) or C5L2 (B) and three days later cells were incubated for 30 minutes with the indicated concentrations of FLUOS-labelled C3a or ASP, respectively. Binding/uptake was assessed by FACS, and the percentage of cells above a fluorescence intensity of 8 was determined. The fluorescence histograms at the highest and lowest ligand concentrations are shown in the insets;
(§3) Recombinant C3a des-Arg⁷⁷ can clearly compete with ¹²⁵I-C3a for binding to C5L2, so we then directly measured the affinity of C3a des-Arg⁷⁷ for C5L2, using protein purified from human plasma as ASP. ASP and purified human C3a were labelled with FLUOS. Increasing concentrations of ASP were incubated with HEK 293 cells transiently transfected with C5L2 and binding and uptake assessed by flow cytometry (FIG. 2A). FLUOS-ASP clearly binds to C5L2, with half maximal fluorescence intensity at approximately 3 nM, whereas mock-tansfected cells show no binding of ASP even at a high concentration of 10 nM. For comparison purposes, the binding of FLUOS-C3a and FLUOS-ASP to HEK 293 cells transiently transfected with C3aR is shown (FIG. 2B). […] Thus, C5L2 has binding characteristics that overlap with both CD88 and C3aR but also the unique ability to bind ASP/C3a des-Arg⁷⁷.

[8] = biological target: T2, human C3a receptor (C3aR); assay: flow cytometry, binding/uptake of FLUOS-C3a on HEK 293 cells transiently transfected with C3aR, 30 min at 37 C
Description: as §2, §3

[9] = biological target: T2, human C3a receptor (C3aR); assay: radioligand competition on C3aR-transfected RBL cells

T1 sequence (Q9P296 whole entry): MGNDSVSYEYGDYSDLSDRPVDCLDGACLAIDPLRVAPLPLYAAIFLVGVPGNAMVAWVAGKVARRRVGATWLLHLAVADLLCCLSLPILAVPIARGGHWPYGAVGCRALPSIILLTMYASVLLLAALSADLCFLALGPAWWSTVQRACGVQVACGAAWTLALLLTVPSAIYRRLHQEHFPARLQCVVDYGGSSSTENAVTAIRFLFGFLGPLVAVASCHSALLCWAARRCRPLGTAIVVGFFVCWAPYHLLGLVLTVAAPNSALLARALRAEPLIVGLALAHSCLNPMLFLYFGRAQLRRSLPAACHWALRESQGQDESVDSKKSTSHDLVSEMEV

B1: recombinant C4a des-Arg^77 (ligand, UniProt P0C0L4 680-755, looked up)
chain: NVNFQKAINEKLGQYASPTAKRCCQDGVTRLPMMRSCEQRAARVQQPDCREPFLSCCQFAESLRKKSRDKGQAGLQ
notes: domain: C4a des-Arg^77; Expressed and purified under non-denaturing conditions; also called C4adR^77
In the case of B1, the IC50 (human C5L2 [1]) is reported as 177 nM, the pD2 (human C5L2 [1]) is reported as 6.75 -log IC50 and the “fold higher affinity for C5L2 than for C3aR” value (human C5L2 [2]) is reported as 1000 fold. For the same binder, the “activity in the degranulation-enhancement assay against C3a des-Arg^77, C5L2-transfected RBL cells” value (human C5L2 [3]) was 230 fold, the IC50 (human C5L2 [4]) was 170000 nM and the pD2 (human C5L2 [4]) was 4.72 -log IC50. The IC50 [5] was 100000 nM and the pD2 [5] was 4.99 -log IC50.

B2: recombinant His6-tagged C3a (ligand)
chain: not shown
notes: domain: C3a; Expressed and purified under denaturing conditions; not shown: His6 tag
B2 was tested, and the IC50 [6] was 230000 nM, the pD2 [6] was 4.64 -log IC50 and the IC50 [5] was 155 nM. For the same binder, the pD2 [5] was 6.81 -log IC50.

B3: plasma ASP (C3a des-Arg^77), purified from human plasma (ligand)
chain: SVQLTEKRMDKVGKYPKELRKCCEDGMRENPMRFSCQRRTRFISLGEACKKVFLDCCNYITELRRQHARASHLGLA
modifications: FLUOS (fluorescein) label in the flow cytometry assays, ^125I label in one assay; labelled residues not stated
notes: Unlabelled in the functional assays; also called acylation stimulating protein; FLUOS-ASP
B3: no binding [7].

B4: recombinant C4a (ligand, UniProt P0C0L4 680-756, looked up)
chain: NVNFQKAINEKLGQYASPTAKRCCQDGVTRLPMMRSCEQRAARVQQPDCREPFLSCCQFAESLRKKSRDKGQAGLQR
notes: domain: C4a; Expressed and purified under non-denaturing conditions
In the case of B4, the IC50 (human C5L2 [1]) is reported as 485 nM, the pD2 (human C5L2 [1]) is reported as 6.31 -log IC50 and the IC50 [6] is reported as 4440 nM. For the same binder, the pD2 [6] was 5.35 -log IC50, the IC50 (human C5L2 [4]) was 3790 nM and the pD2 (human C5L2 [4]) was 5.42 -log IC50. The IC50 [5] was 250 nM and the pD2 [5] was 6.6 -log IC50.

B5: plasma C3a, purified human C3a (ligand)
chain: not shown
modifications: FLUOS (fluorescein) label; labelled residues not stated
notes: domain: C3a; also called FLUOS-C3a
Work on B5 yielded an EC50 [8] of 2.5 nM.

B6: recombinant His6-tagged C5a (ligand, UniProt P01031 678-751, looked up)
chain: TLQKKIEEIAAKYKHSVVKKCCYDGACVNNDETCEQRAARISLGPRCIKAFTECCVVASQLRANISHKDMQLGR
notes: domain: C5a; Expressed and purified under denaturing conditions; not shown: His6 tag
For B6, the IC50 (human C5L2 [1]) was 293 nM, the pD2 (human C5L2 [1]) was 6.53 -log IC50 and the IC50 [6] was 20.5 nM. The pD2 [6] was 7.69 -log IC50, the IC50 (human C5L2 [4]) was 8.17 nM and the pD2 (human C5L2 [4]) was 8.09 -log IC50. For the same binder, the IC50 [5] was 2900 nM and the pD2 [5] was 5.54 -log IC50.

B7: recombinant His6-tagged C5a des-Arg^74 (ligand, UniProt P01031 678-750, looked up)
chain: TLQKKIEEIAAKYKHSVVKKCCYDGACVNNDETCEQRAARISLGPRCIKAFTECCVVASQLRANISHKDMQLG
notes: domain: C5a des-Arg^74; also called C5adR^74; not shown: His6 tag
In the case of B7, the pD2 (human C5L2 [1]) is reported as < 3 -log IC50, the IC50 [6] is reported as 411 nM and the pD2 [6] is reported as 6.39 -log IC50. For the same binder, the IC50 (human C5L2 [4]) was 36.9 nM, the pD2 (human C5L2 [4]) was 7.43 -log IC50 and the IC50 [5] was 9670 nM. The pD2 [5] was 5.02 -log IC50.

B8: recombinant C3a des-Arg^77 (ligand)
chain: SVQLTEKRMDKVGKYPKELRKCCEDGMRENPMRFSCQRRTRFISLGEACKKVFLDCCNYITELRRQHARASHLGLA
notes: Recombinant form, expressed and purified under non-denaturing conditions; also called C3adR^77
With B8 the binding result [9] was “no binding (tested: pD2 <4)” and the pD2 [5] was < 4 -log IC50.
